According to patent publication US20050054043A1 (UNIVERSITY OF VERMONT, published 2005):

Experiments:
[1] = target: T1, transferrin receptor on HeLa S3 cells (human, UniProt P02786 1-760); assay: direct equilibrium binding of radioiodinated diferric transferrin to HeLa S3 cells, LIGAND fit (apparent Kd')
T1 construct: whole, on cells; also called human receptors; cell-surface transferrin receptors
Method: After 30 min of incubation at 37° C. with gentle shaking, portions of the cell suspension (3×100 μL) were pipetted into microfuge tubes containing 0.9 mL of ice-cold JMEM-BSA over 300 μL of dibutyl phthalate and centrifuged for 2 min in a Beckman microfuge. The aqueous and organic phases were aspirated to just above the cell pellet. The bottom of the tube containing the cell pellet was released by a hot wire into a plastic tube (12×75 mm) and assayed for radioactivity.

[2] = target: T1, transferrin receptor on HeLa S3 cells; assay: competition of unlabeled transferrin against radioiodinated Boehringer Mannheim hTf on HeLa S3 cells, LIGAND fit (apparent Kd')
Method: Cells were routinely grown in DMEM-F-12 containing 10% newborn calf serum. Prior to beginning a binding experiment, the cells were harvested with Versene, and taken up in Joklik's minimum essential medium-20 mM Hepes-2% BSA (JMEM-BSA). Endogenous bovine transferrin was removed from the HeLa cells by incubation for 10 min at 37° C. at a 5-fold dilution with JMEM-BSA. After centrifugation of the cells and removal of the supernatant, this procedure was repeated twice. […] After 30 min of incubation at 37° C. with gentle shaking, portions of the cell suspension (3×100 μL) were pipetted into microfuge tubes containing 0.9 mL of ice-cold JMEM-BSA over 300 μL of dibutyl phthalate and centrifuged for 2 min in a Beckman microfuge. The aqueous and organic phases were aspirated to just above the cell pellet. The bottom of the tube containing the cell pellet was released by a hot wire into a plastic tube (12×75 mm) and assayed for radioactivity.

T1 sequence (P02786 whole entry): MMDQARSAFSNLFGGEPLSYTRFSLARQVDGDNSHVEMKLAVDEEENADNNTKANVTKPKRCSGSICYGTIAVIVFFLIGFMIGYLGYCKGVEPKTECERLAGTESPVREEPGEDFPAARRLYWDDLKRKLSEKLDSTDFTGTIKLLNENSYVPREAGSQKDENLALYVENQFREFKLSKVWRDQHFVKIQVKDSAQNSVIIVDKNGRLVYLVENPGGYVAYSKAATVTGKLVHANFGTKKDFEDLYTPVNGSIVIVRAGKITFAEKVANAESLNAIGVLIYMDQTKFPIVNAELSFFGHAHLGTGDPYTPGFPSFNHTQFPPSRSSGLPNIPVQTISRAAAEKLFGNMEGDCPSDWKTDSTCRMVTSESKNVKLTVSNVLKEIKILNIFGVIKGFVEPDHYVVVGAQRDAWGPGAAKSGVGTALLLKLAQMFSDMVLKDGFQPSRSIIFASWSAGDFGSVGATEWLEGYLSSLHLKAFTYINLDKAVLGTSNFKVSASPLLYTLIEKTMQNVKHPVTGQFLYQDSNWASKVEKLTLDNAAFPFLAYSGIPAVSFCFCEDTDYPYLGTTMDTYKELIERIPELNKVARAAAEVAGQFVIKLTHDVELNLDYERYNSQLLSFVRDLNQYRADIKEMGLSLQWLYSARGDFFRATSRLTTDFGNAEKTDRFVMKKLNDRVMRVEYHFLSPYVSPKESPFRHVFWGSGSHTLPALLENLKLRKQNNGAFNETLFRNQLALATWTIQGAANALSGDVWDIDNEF

B1: hTf N413D/N611D mutant (recombinant nonglycosylated human serum transferrin), diferric (ligand)
chain: VPDKTVRWCAVSEHEATKCQSFRDHMKSVIPSDGPSVACVKKASYLDCIRAIAANEADAVTLDAGLVYDAYLAPNNLKPVVAEFYGSKEDPQTFYYAVAVVKKDSGFQMNQLRGKKSCHTGLGRSAGWNIPIGLLYCDLPEPRKPLEKAVANFFSGSCAPCADGTDFPQLCQLCPGCGCSTLNQYFGYSGAFKCLKDGAGDVAFVKHSTIFENLANKADRDQYELLCLDNTRKPVDEYKDCHLAQVPSHTVVARSMGGKEDLIWELLNQAQEHFGKDKSKEFQLFSSPHGKDLLFKDSAHGFLKVPPRMDAKMYLGYEYVTAIRNLREGTCPEAPTDECKPVKWCALSHHERLKCDEWSVNSVGKIECVSAETTEDCIAKIMNGEADAMSLDGGFVYIAGKCGLVPVLAENYDKSDNCEDTPEAGYFAVAVVKKSASDLTWDNLKGKKSCHTAVGRTAGWNIPMGLLYNKINHCRFDEFFSEGCAPGSKKDSSLCKLCMGSGLNLCEPNNKEGYYGYTGAFRCLVEKGDVAFVKHQTVPQNTGGKNPDPWAKNLNEKDYELLCLDGTRKPVEEYANCHLARAPNHAVVTRKDKEACVHKILRQQQHLFGSDVTDCSGNFCLFRSETKDLLFRDDTVCLAKLHDRNTYEKYLGEEYVKAVGNLRKCSTSSLLEACTFRRP
modifications: non-glycosylated; diferric (iron-saturated); radioiodinated in Table 2 (A), unlabeled in (B)
notes: Full-length human transferrin with both N-glycosylation sites changed to Asp, expressed in BHK cells; Positions use mature-protein numbering; also called hTf(N/D)
- Kd [1]: 0.0234 µM
- Kd [2]: 0.0198 µM
